Tested on: Escherichia coli TOP10
Experiment: shrunken log2 fold change of peptide-encoding DNA abundance (4.5 h post-induction vs induction); higher = less antimicrobial activity (less host growth inhibition)
Details: time post-induction: 4.5 h; library: site-saturation at positions 5, 18, 19, 20
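Further: peptides expressed intracellularly from a pBAD plasmid library in pooled LB shake-flask culture, induced with 0.3% L-arabinose, DNA abundance read by NGS, three biological replicates, DESeq2 with apeglm shrinkage.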

## RRIRYRPPRLPRPRPRPGCTPRP
  shrunken log2 fold change: -0.0794

## RRIRGRPPRLPRPRPRPHTEPRP
  shrunken log2 fold change: -0.0408

## RRIRGRPPRLPRPRPRPIPHPRP
  shrunken log2 fold change: 0.196

## RRIRLRPPRLPRPRPRPDWVPRP
  shrunken log2 fold change: -0.0945

## RRIRSRPPRLPRPRPRPWSGPRP
  shrunken log2 fold change: -0.0339

## RRIRPRPPRLPRPRPRPFIHPRP
  shrunken log2 fold change: -0.224

## RRIRGRPPRLPRPRPRPKPTPRP
  shrunken log2 fold change: 0.527

## RRIRHRPPRLPRPRPRPDWHPRP
  shrunken log2 fold change: 2.17

## RRIRQRPPRLPRPRPRPAECPRP
  shrunken log2 fold change: 0.17

## RRIRFRPPRLPRPRPRPVGPPRP
  shrunken log2 fold change: 0.405

## RRIRKRPPRLPRPRPRPQKMPRP
  shrunken log2 fold change: 0.0795

## RRIRVRPPRLPRPRPRPETAPRP
  shrunken log2 fold change: 0.406

## RRIRIRPPRLPRPRPRPPIAPRP
  shrunken log2 fold change: -0.109

## RRIRHRPPRLPRPRPRPQHGPRP
  shrunken log2 fold change: 0.00949

## RRIRERPPRLPRPRPRPPLNPRP
  shrunken log2 fold change: -0.192

## RRIRYRPPRLPRPRPRPENWPRP
  shrunken log2 fold change: -0.223

## RRIRIRPPRLPRPRPRPWMHPRP
  shrunken log2 fold change: 0.0105

## RRIRRRPPRLPRPRPRPCYRPRP
  shrunken log2 fold change: 0.0724

## RRIRYRPPRLPRPRPRPPQQPRP
  shrunken log2 fold change: 0.0729

## RRIRQRPPRLPRPRPRPDPKPRP
  shrunken log2 fold change: 0.0129

## RRIRVRPPRLPRPRPRPCEIPRP
  shrunken log2 fold change: -0.0392

## RRIRFRPPRLPRPRPRPADEPRP
  shrunken log2 fold change: 0.173

## RRIRIRPPRLPRPRPRPEIAPRP
  shrunken log2 fold change: -0.141

## RRIRPRPPRLPRPRPRPWSLPRP
  shrunken log2 fold change: -0.0559

## RRIRVRPPRLPRPRPRPIGPPRP
  shrunken log2 fold change: -0.0936

## RRIRYRPPRLPRPRPRPKTIPRP
  shrunken log2 fold change: -0.421

## RRIRARPPRLPRPRPRPVTFPRP
  shrunken log2 fold change: 0.0573

## RRIRCRPPRLPRPRPRPWLLPRP
  shrunken log2 fold change: -0.381

## RRIRNRPPRLPRPRPRPQARPRP
  shrunken log2 fold change: -0.0332

## RRIRPRPPRLPRPRPRPDKEPRP
  shrunken log2 fold change: -0.0375

## RRIRERPPRLPRPRPRPYTCPRP
  shrunken log2 fold change: -0.398

## RRIRPRPPRLPRPRPRPERYPRP
  shrunken log2 fold change: 0.378

## RRIRERPPRLPRPRPRPRMLPRP
  shrunken log2 fold change: -0.0942

## RRIRARPPRLPRPRPRPVVPPRP
  shrunken log2 fold change: 0.496

## RRIRYRPPRLPRPRPRPFLVPRP
  shrunken log2 fold change: -1.03

## RRIRSRPPRLPRPRPRPDCQPRP
  shrunken log2 fold change: 0.117

## RRIRKRPPRLPRPRPRPGLVPRP
  shrunken log2 fold change: 0.783

## RRIRDRPPRLPRPRPRPQVMPRP
  shrunken log2 fold change: 0.0256

## RRIRIRPPRLPRPRPRPEHWPRP
  shrunken log2 fold change: 0.168

## RRIRMRPPRLPRPRPRPVGTPRP
  shrunken log2 fold change: 0.477

## RRIRERPPRLPRPRPRPMSGPRP
  shrunken log2 fold change: 0.0249

## RRIRNRPPRLPRPRPRPAVCPRP
  shrunken log2 fold change: 0.158

## RRIRMRPPRLPRPRPRPMATPRP
  shrunken log2 fold change: 0.0129

## RRIRLRPPRLPRPRPRPQVTPRP
  shrunken log2 fold change: 0.0952

## RRIRLRPPRLPRPRPRPFCRPRP
  shrunken log2 fold change: 0.0702

## RRIRDRPPRLPRPRPRPKAAPRP
  shrunken log2 fold change: 0.0214

## RRIRFRPPRLPRPRPRPQDSPRP
  shrunken log2 fold change: -0.113

## RRIRPRPPRLPRPRPRPWTMPRP
  shrunken log2 fold change: 0.0177

## RRIRHRPPRLPRPRPRPWSGPRP
  shrunken log2 fold change: -0.17

## RRIRDRPPRLPRPRPRPFVPPRP
  shrunken log2 fold change: -0.0913

## RRIRHRPPRLPRPRPRPHELPRP
  shrunken log2 fold change: -0.126

## RRIRLRPPRLPRPRPRPECQPRP
  shrunken log2 fold change: -0.00577

## RRIRGRPPRLPRPRPRPTSNPRP
  shrunken log2 fold change: 0.659

## RRIRMRPPRLPRPRPRPMRKPRP
  shrunken log2 fold change: 0.361

## RRIRVRPPRLPRPRPRPPRMPRP
  shrunken log2 fold change: 0.167

## RRIRDRPPRLPRPRPRPSHEPRP
  shrunken log2 fold change: -0.0403

## RRIRVRPPRLPRPRPRPWWYPRP
  shrunken log2 fold change: -0.327

## RRIRERPPRLPRPRPRPKFSPRP
  shrunken log2 fold change: -0.0396

## RRIRMRPPRLPRPRPRPWYGPRP
  shrunken log2 fold change: -0.0162

## RRIRSRPPRLPRPRPRPWYRPRP
  shrunken log2 fold change: -0.119

## RRIRYRPPRLPRPRPRPMIDPRP
  shrunken log2 fold change: -0.00999

## RRIRGRPPRLPRPRPRPVNIPRP
  shrunken log2 fold change: 0.145

## RRIRKRPPRLPRPRPRPCCNPRP
  shrunken log2 fold change: 0.0185

## RRIRFRPPRLPRPRPRPLWIPRP
  shrunken log2 fold change: -0.624

## RRIRARPPRLPRPRPRPSNFPRP
  shrunken log2 fold change: -0.221

## RRIRCRPPRLPRPRPRPCGYPRP
  shrunken log2 fold change: -0.144

## RRIRGRPPRLPRPRPRPNWHPRP
  shrunken log2 fold change: 0.27

## RRIRPRPPRLPRPRPRPRIFPRP
  shrunken log2 fold change: -0.0669

## RRIRYRPPRLPRPRPRPKRCPRP
  shrunken log2 fold change: 0.0441

## RRIRGRPPRLPRPRPRPFCKPRP
  shrunken log2 fold change: 0.0671

## RRIRKRPPRLPRPRPRPCHAPRP
  shrunken log2 fold change: 0.384

## RRIRCRPPRLPRPRPRPHSPPRP
  shrunken log2 fold change: -0.422

## RRIRIRPPRLPRPRPRPGNVPRP
  shrunken log2 fold change: -0.0399

## RRIRSRPPRLPRPRPRPHHAPRP
  shrunken log2 fold change: -0.41

## RRIRTRPPRLPRPRPRPDYKPRP
  shrunken log2 fold change: -0.303

Reference: the supplement of paper PMC9112550, “Optimization of the antimicrobial peptide Bac7 by deep mutational scanning” (BMC Biology, 2022)
